Values quoted from earlier work, collected in paper PMC10412679.
pKd: −log10 of the molar value.

Molecular target: CD47 (Homo sapiens) (UniProt Q08722)

magrolimab
pKd: 8.10
